Source: patent US20120107364A1 (ACTGEN, published 2012)

Assays:
Assay in all cases: flow cytometry on Ba/F3 cells expressing the truncated PODXL2
[1] = target: T1, PODXL2, positions 1 to 340 (human, UniProt O00592 23-372)
T1 construct: One of the 14 C-terminal truncations; Expressed on Ba/F3 cells; also called R340
T1 sequence: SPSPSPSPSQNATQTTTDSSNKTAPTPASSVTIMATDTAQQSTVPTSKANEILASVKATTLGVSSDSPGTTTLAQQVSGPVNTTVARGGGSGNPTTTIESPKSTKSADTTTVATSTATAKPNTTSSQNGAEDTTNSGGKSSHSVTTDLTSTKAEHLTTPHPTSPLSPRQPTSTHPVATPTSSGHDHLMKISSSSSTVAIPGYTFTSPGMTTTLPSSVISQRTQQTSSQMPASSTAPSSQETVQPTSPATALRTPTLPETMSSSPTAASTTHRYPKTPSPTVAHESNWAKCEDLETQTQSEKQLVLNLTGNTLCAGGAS
Procedure: (§1) To each sample of the cell suspension, 50 μl of the hybridoma culture supernatant or 2-μg/ml of the purified antibody (hereinafter, referred to as an “antibody solution”) was added, and the antibody was reacted with the cells. As an isotype control of the antibody solution, a wash buffer containing 2 μg/ml of each of mouse IgG1 (BioLegend, 400412), mouse IgG2a (BioLegend, 400224), and mouse IgG2b (BioLegend, 400324) was used. The hybridoma culture supernatant was reacted with the target cells at room temperature for 30 minutes, followed by centrifugation at 700×g for 2 minutes. Then, a culture supernatant was removed. Further, 100 μl of a wash buffer was added, followed by centrifugation at 700×g for 2 minutes again. A supernatant was removed. Then, the cells were washed.
(§2) Next, to the cell pellets after the washing, 50 μl of Goat anti-mouse IgG, F(ab′) 2-PE (PE=phycoerythrin, Beckman Coulter, IM0855) diluted 200-fold with a wash buffer was added as a secondary antibody for detection, and reacted in the dark at room temperature for 30 minutes. The reaction was followed by centrifugation at 700×g for 2 minutes. A supernatant was removed. Further, 100 μl of a wash buffer was added, followed by centrifugation at 700×g for 2 minutes again. A supernatant was removed. Then, the cells were washed. Thereafter, the cells were suspended in an appropriate amount of a wash buffer. The reactivity between the antibody and the cells was analyzed by a flow cytometer (Beckman Coulter, FC500 MPL).
(§3) Thereafter, by the same method as in Example 1 (4) (the virus packaging and thereafter), Ba/F3 cells containing the PODXL2 gene sequences of various chain lengths were prepared. Further, by the same method as in Example 4, the reactivity between the ACT36-27_{—}5D1 antibody and the Ba/F3 cells expressing the PODXL2 molecules of various chain lengths was analyzed by a flow cytometer (FIG. 10).

[2] = target: T2, PODXL2, positions 1 to 330 (human, UniProt O00592 23-362)
T2 construct: One of the 14 C-terminal truncations; Expressed on Ba/F3 cells; also called R330
T2 sequence: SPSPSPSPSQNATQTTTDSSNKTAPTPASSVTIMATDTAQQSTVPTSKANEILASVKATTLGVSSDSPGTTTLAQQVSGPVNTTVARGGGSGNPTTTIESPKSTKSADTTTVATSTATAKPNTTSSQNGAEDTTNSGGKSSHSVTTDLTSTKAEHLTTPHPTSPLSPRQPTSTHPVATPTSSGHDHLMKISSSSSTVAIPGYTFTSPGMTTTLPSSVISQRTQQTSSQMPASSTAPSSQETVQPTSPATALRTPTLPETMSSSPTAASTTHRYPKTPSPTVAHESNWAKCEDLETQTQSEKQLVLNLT
Procedure: as §1, §2, §3

[3] = target: T3, PODXL2, positions 1 to 420 (human, UniProt O00592 23-452)
T3 construct: Encoded as positions 1-420 in pMX-SST and expressed on Ba/F3 cells; The vector-encoded part is not described; also called R420
T3 sequence: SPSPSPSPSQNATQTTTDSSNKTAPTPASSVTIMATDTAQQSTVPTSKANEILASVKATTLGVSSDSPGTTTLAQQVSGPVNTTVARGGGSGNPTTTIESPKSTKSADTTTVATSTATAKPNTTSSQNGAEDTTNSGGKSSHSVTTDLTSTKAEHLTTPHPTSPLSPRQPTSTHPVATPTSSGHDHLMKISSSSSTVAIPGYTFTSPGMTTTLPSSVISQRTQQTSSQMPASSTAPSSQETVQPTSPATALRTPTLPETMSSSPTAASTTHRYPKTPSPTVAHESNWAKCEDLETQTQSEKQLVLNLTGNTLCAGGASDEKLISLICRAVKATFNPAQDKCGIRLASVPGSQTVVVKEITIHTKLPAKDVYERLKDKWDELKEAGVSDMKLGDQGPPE
Procedure: as §1, §2, §3

[4] = target: T4, PODXL2, positions 1 to 410 (human, UniProt O00592 23-442)
T4 construct: Encoded as positions 1-410 in pMX-SST and expressed on Ba/F3 cells; The vector-encoded part is not described; also called R410
T4 sequence: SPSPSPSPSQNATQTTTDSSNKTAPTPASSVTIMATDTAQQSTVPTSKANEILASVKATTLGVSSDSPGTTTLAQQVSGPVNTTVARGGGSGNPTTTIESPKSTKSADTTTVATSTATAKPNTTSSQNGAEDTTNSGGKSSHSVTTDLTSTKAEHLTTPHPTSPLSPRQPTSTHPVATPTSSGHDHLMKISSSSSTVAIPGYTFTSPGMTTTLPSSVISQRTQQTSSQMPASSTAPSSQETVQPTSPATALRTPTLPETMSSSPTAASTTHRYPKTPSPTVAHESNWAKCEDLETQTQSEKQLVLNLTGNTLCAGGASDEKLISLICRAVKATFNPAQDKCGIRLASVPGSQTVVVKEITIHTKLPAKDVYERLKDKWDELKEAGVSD
Procedure: as §1, §2, §3

[5] = target: T5, PODXL2, positions 1 to 300 (human, UniProt O00592 23-332)
T5 construct: Shortest of the 14 C-terminal truncations; Expressed on Ba/F3 cells; also called R300
T5 sequence: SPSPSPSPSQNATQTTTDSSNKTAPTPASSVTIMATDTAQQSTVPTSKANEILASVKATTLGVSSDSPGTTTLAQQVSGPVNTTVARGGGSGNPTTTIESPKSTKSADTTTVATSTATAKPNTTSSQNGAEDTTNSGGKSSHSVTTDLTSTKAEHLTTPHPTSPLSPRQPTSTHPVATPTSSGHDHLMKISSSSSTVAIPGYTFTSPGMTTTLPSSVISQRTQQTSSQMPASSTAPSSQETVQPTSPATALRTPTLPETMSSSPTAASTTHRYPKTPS
Procedure: as §1, §2, §3

- binding result [1]: no binding
- binding result [2]: no binding
- binding result [3]: binds
- binding result [4]: binds
- binding result [5]: no binding
B1: ACT36-27-5D1 antibody (antibody, V domains shown)
VH: EVQLQQSGPELVKPGASVKMSCKASGYTFTSYVMHWVKQKPGQGLEWIGYIHPYNDGIKYNEKFKGKATLTSDKSSSTAYMDLSSLTSEDSAVYYCARSWDWYFDVWAAGTTVTVSS
VL: QIVLTQSPAIMSASPGEKVSMTCSASSSVSYMHWYQQKSGTSPKRWIYDTSKLASGVPARFSGSGSGTSYSLTISSMEAEDAATYYCLQWSSNPPTFGGGTKLE
notes: also called anti-PODXL2 antibody ACT36-27-5D1; anti-ACT36-27-5D1 monoclonal antibody
